Experimental findings from the Human Domainome abundance scans (Beltran et al. 2025) are described below.

± gives the uncertainty stated by the source.

The chains are these.
B1: FERM and PDZ domain-containing protein 4, residues 75 to 154; numbered along this chain, Q14CM0 (parent)
chain: APRKVEMRRDPVLGFGFVAGSEKPVVVRSVTPGGPSEGKLIPGDQIVMINDEPVSAAPRERVIDLVRSCKESILLTVIQP

Variants of B1 are the subject of the data set. Put plainly: abundance fitness (aPCA) (normalised: wild type 0, dead -1); higher = more abundant; growth selection in yeast, the domain comes from the species named. Particulars: Homo sapiens.
For the variant V77M, the abundance fitness is -0.475 ± 0.031.
Then V77T, with -0.231 ± 0.028; and V77W, with -0.981 ± 0.041.
With V77Y, the abundance fitness was -0.815 ± 0.078.
With V77S, the abundance fitness is -0.655 ± 0.03.
Then V77L, with -0.105 ± 0.021; and V77H, with -0.681 ± 0.056; and V77I, with -0.098 ± 0.032.
With V77K, the abundance fitness is -0.523 ± 0.033.
Then V77G, with -0.653 ± 0.023.
The value for V77A was -0.259 ± 0.023.
Then V77C, with -0.07 ± 0.029.
On to V77D, for which the abundance fitness was -0.658 ± 0.044.
The value for V77R was -0.728 ± 0.025; that for T76S was -0.047 ± 0.032; that for T76R was -0.058 ± 0.029.
For T76D, the abundance fitness was -0.073 ± 0.055.
With T76A, the abundance fitness is -0.132 ± 0.033.
Take T76E: the abundance fitness was -0.025 ± 0.04.
Then T76Y, with -0.005 ± 0.059.
The value for T76M was -0.154 ± 0.04; that for T76H was -0.05 ± 0.062; that for T76K was -0.036 ± 0.04.
Then T76I, with -0.156 ± 0.052; and T76N, with 0.002 ± 0.074.
In the case of T76W, the abundance fitness was -0.18 ± 0.033.
Then T76C, with -0.088 ± 0.047.
Then T76P, with -0.639 ± 0.081; and T76V, with -0.133 ± 0.031.
On to T76Q, for which the abundance fitness was -0.095 ± 0.039.
As to T76L, the abundance fitness was -0.163 ± 0.034.
Consider I73R, for which the abundance fitness is -0.669 ± 0.036.
Then I73Y, with -0.755 ± 0.092; and I73F, with -0.242 ± 0.057; and I73G, with -0.565 ± 0.032.
Then I73N, with -0.369 ± 0.052; and I73T, with -0.202 ± 0.038.
With I73S, the abundance fitness is -0.462 ± 0.037.
Then I73V, with -0.025 ± 0.027; and I73H, with -0.793 ± 0.17.
Then I73L, with -0.023 ± 0.029; and I73E, with -0.463 ± 0.037.
Turning to I73C, the abundance fitness is -0.045 ± 0.039.
Turning to I73W, the abundance fitness is -0.954 ± 0.057.
Regarding I73P, the abundance fitness was -0.57 ± 0.061.
With S72T, the abundance fitness was -0.011 ± 0.026.
Regarding S72P, the abundance fitness is -0.284 ± 0.028.
As for S72Y, the abundance fitness was -0.129 ± 0.029.
Turning to S72K, the abundance fitness turned out to be 0.009 ± 0.027.
With S72V, the abundance fitness is -0.104 ± 0.023.
The value for S72C was -0.111 ± 0.032; that for S72N was -0.028 ± 0.028.
Then S72M, with -0.11 ± 0.028; and S72R, with -0.019 ± 0.021; and S72F, with -0.167 ± 0.028.
Then S72I, with -0.177 ± 0.029.
For S72W, the abundance fitness is -0.234 ± 0.029.
For the variant S72D, the abundance fitness was -0.014 ± 0.029.
The value for S72A was -0.072 ± 0.024.
On to S72Q, for which the abundance fitness was -0.004 ± 0.027.
Take S72H: the abundance fitness is -0.015 ± 0.029.
Then E71Y, with -0.231 ± 0.035.
Then E71W, with -0.215 ± 0.035.
The value for E71V was -0.164 ± 0.029; that for Q79V was -0.236 ± 0.021.
For the variant Q79W, the abundance fitness is -0.233 ± 0.023.
For Q79D, the abundance fitness is -0.002 ± 0.028.
For Q79P, the abundance fitness was -0.019 ± 0.03.
Take Q79E: the abundance fitness was -0.017 ± 0.024.
Then Q79Y, with -0.09 ± 0.033; and Q79T, with 0.028 ± 0.024.
On to Q79K, for which the abundance fitness was -0.029 ± 0.027.
The value for Q79L was -0.165 ± 0.022.
The value for Q79S was 0.022 ± 0.022; that for Q79H was -0.027 ± 0.032; that for Q79I was -0.425 ± 0.039.
As to Q79C, the abundance fitness amounted to 0.012 ± 0.028.
In the case of Q79F, the abundance fitness is -0.262 ± 0.034.
Then Q79R, with 0.074 ± 0.018; and Q79G, with 0.03 ± 0.019.
Then Q79N, with -0.045 ± 0.033; and Q79A, with 0.035 ± 0.022; and P80M, with -0.181 ± 0.048.
The value for P80Y was -0.356 ± 0.07.
As to P80A, the abundance fitness was -0.086 ± 0.033.
In the case of P80V, the abundance fitness is -0.23 ± 0.039.
With P80T, the abundance fitness was -0.066 ± 0.033.
Turning to P80D, the abundance fitness is -0.28 ± 0.11.
The value for P80H was -0.165 ± 0.066.
Then P80C, with -0.157 ± 0.11.
The value for P80S was -0.066 ± 0.028; that for P80L was -0.387 ± 0.042; that for P80K was -0.138 ± 0.054.
Take P80R: the abundance fitness is -0.146 ± 0.04.
The value for P80G was -0.074 ± 0.036; that for P80W was -0.403 ± 0.064; that for P80E was -0.164 ± 0.053.
In the case of P80Q, the abundance fitness was found to be 0 ± 0.05.
In the case of P80N, the abundance fitness was -0.058 ± 0.085.
Then P80F, with -0.387 ± 0.13; and P80I, with -0.413 ± 0.11.
Turning to I78M, the abundance fitness is 0.022 ± 0.025.
For the variant I78H, the abundance fitness was -0.015 ± 0.036.
Then I78T, with 0.037 ± 0.024; and I78C, with -0.029 ± 0.027.
The value for I78E was 0.044 ± 0.023; that for I78R was 0.005 ± 0.019.
As for I78K, the abundance fitness was found to be 0.036 ± 0.027.
The value for I78Y was -0.053 ± 0.033; that for I78Q was 0.025 ± 0.024; that for I78S was 0.01 ± 0.022.
The value for I78N was -0.049 ± 0.033; that for I78P was -0.569 ± 0.032.
I78G: the abundance fitness is -0.079 ± 0.019.
Take I78F: the abundance fitness is -0.042 ± 0.031.
As to I78W, the abundance fitness was -0.063 ± 0.022.
With I78L, the abundance fitness is -0.024 ± 0.02.
Regarding I78A, the abundance fitness was determined as 0.028 ± 0.021.
Then L75V, with -0.097 ± 0.032; and L75N, with -0.773 ± 0.19.
As for L75H, the abundance fitness was -0.553 ± 0.2.
Then L75D, with -0.343 ± 0.062.
The value for L75R was -0.631 ± 0.045.
On to L75Q, for which the abundance fitness was -0.542 ± 0.096.
The value for L75M was -0.022 ± 0.041; that for L75K was -0.387 ± 0.07; that for L75W was -0.629 ± 0.048.
In the case of L75C, the abundance fitness is -0.257 ± 0.052.
Then L75I, with -0.118 ± 0.066.
L75E: the abundance fitness is -0.514 ± 0.054.
Then L75A, with -0.332 ± 0.04; and L75T, with -0.404 ± 0.063.
The value for L75Y was -0.749 ± 0.13.
Then L75S, with -0.558 ± 0.051.
L75F: the abundance fitness was -0.101 ± 0.047.
Then L75P, with -0.185 ± 0.075; and L74N, with -0.035 ± 0.079.
The value for L74R was 0.037 ± 0.031.
The value for L74H was 0.005 ± 0.13; that for L74W was -0.024 ± 0.037.
For L74Q, the abundance fitness amounted to 0.03 ± 0.045.
Turning to L74A, the abundance fitness is -0.006 ± 0.032.
For L74K, the abundance fitness amounted to 0.026 ± 0.049.
Turning to L74D, the abundance fitness worked out at 0.012 ± 0.05.
Then L74T, with -0.014 ± 0.043; and L74P, with -0.366 ± 0.068.
Then L74G, with 0.009 ± 0.026; and L74F, with 0.016 ± 0.062; and L74I, with 0.145 ± 0.096.
Consider L74Y, for which the abundance fitness worked out at 0.131 ± 0.092.
For the variant L74C, the abundance fitness amounted to 0.038 ± 0.05.
In the case of L74E, the abundance fitness was determined as 0.005 ± 0.034.
The value for L74V was 0.012 ± 0.031; that for L74S was 0.024 ± 0.038; that for L74M was 0.011 ± 0.043.
